Reference: publication PMC4140777, “Recognition of Bungarus multicinctus Venom by a DNA Aptamer against β-Bungarotoxin”

Target: α-bungarotoxin (α-BuTx) (Bungarus multicinctus, UniProt P60615 22-95)
Experiment: 20 mM HEPES pH 7.4, 150 mM NaCl, 5 mM KCl, 2 mM MgCl2, 2 mM CaCl2, room temperature
Details: protein: commercial; label: 5'-FAM (FA, filter, EMSA); biotin (ELAA); stem-loop (predicted)

Sequence of α-bungarotoxin (α-BuTx) (P60615 22-95): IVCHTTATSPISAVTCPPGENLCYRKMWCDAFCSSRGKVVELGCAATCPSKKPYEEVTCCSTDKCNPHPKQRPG

B1: βB-1 (ssDNA)
DNA: AGCAGCACAGAGGTCAGATGGTTTTCCCCTTGTCGCTTTTGGTTCGTTCTGCCTCTATCTCCTATGCGTGCTACCGTGAA
binding result: no binding
